Assay results as given in the supplement of paper PMC10724198.
± gives the standard deviation of the averaged measurements.

Test system: Saccharomyces cerevisiae
Assay: protein stability index of tFT-peptide fusion (C-terminal peptide) (PSI (0-1 scale)); higher = more stable (slower turnover)
Details: genetic background: wild type; temperature: 30 C
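Also: PSI is a weighted mean of sequencing reads over stability bins, variants kept only with over 10 reads, mCherry proximal and sfGFP distal, peptide attached via GGGS linker.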

Row | Sequence | protein stability index
1 | PPSPPPPPPPPP | 0.6847 ± 0.0032
2 | PPSPPPPPRPPP | 0.583 ± 0.019
3 | PPSPPPPTGLCL | 0.745 ± 0.078
4 | PPSPRHPAPQPR | 0.679 ± 0.026
5 | PPSPRPPPPSPS | 0.719 ± 0.1
6 | PPSPSLPPPPRS | 0.699 ± 0.055
7 | PPSRTPFLPPFR | 0.691 ± 0.032
8 | PPSSPPFLPSRP | 0.677 ± 0.031
9 | PPSSPPPPLPPS | 0.712 ± 0.035
10 | PPSVILTSASSR | 0.721 ± 0.011
11 | PPTHLLRTHPPA | 0.68368 ± 0.00032
12 | PPTLPPPRTLPL | 0.6984 ± 0.0052
13 | PPTPPPPSLTPP | 0.746 ± 0.027
14 | PPTPPRLHRSPP | 0.69 ± 0.11
15 | PPTPPRPPPRTT | 0.69 ± 0.028
16 | PPTPRALFPPLP | 0.745 ± 0.049
17 | PPTTPHPTPTAP | 0.689 ± 0.033
18 | PPVPPPDLCSAL | 0.653 ± 0.068
19 | PPVSPPSPRLPL | 0.7329 ± 0.0049
20 | PPYAPPDHPPFR | 0.699 ± 0.03
21 | PPYDSSYGILLR | 0.7666 ± 0.0053
22 | PPYIMCPFTPGG | 0.632 ± 0.024
23 | PPYPPPHASPAP | 0.693 ± 0.039
24 | PPYPPPRPKPPR | 0.699 ± 0.012
25 | PPYSPSPRDPFA | 0.713 ± 0.047
26 | PQIIFVSRASYL | 0.681 ± 0.015

Row | Sequence | protein stability index
27 | PQPNSSEPTSQK | 0.722 ± 0.011
28 | PQTAGTHRARVN | 0.698 ± 0.026
29 | PQTPQTSTQAPG | 0.673 ± 0.01
30 | PQVLSPPLSTSR | 0.728 ± 0.008
31 | PQYLPLLPSPSP | 0.632 ± 0.048
32 | PRALLCLLSRPC | 0.722 ± 0.1
33 | PRAYPSNLPPSP | 0.721 ± 0.037
34 | PRDLRVVRLTSA | 0.63 ± 0.022
35 | PRDSRPLPAYSL | 0.591 ± 0.028
36 | PRFGPPQLPAKA | 0.754 ± 0.062
37 | PRFPYGPFDFSI | 0.669 ± 0.046
38 | PRGALMKGYKPG | 0.663 ± 0.1
39 | PRGLGYHGALVL | 0.571
40 | PRGPPPPAPPPT | 0.689 ± 0.0075
41 | PRGRSRPRCVIR | 0.684 ± 0.13
42 | PRIGRPQSLTFH | 0.621 ± 0.011
43 | PRIPHPPRPRPP | 0.669 ± 0.024
44 | PRLGFFPFPSGP | 0.709 ± 0.03
45 | PRLLPPLGFLTF | 0.764 ± 0.075
46 | PRLPLPPPPLPL | 0.683 ± 0.026
47 | PRLPYPSLFPCT | 0.678 ± 0.056
48 | PRPAAPSPPPLP | 0.588 ± 0.014
49 | PRPAQDAEPIQP | 0.646 ± 0.098
50 | PRPGGHLFLVFS | 0.679 ± 0.033
51 | PRPKNQMAIYRE | 0.708 ± 0.07
52 | PRPLPLPPLALP | 0.696 ± 0.027

Row | Sequence | protein stability index
53 | PRPLTPPAPPHP | 0.748 ± 0.041
54 | PRPPNPRPPPPP | 0.729 ± 0.071
55 | PRPPPPPASVCR | 0.6579 ± 0.00069
56 | PRPPPRRPDFGL | 0.825 ± 0.16
57 | PRPRRSSLPFPP | 0.818 ± 0.073
58 | PRPSPLSSLSVS | 0.7206 ± 0.0064
59 | PRRFPFRHATSP | 0.635 ± 0.084
60 | PRRLAPPPPPSP | 0.744 ± 0.012
61 | PRRPHDPFPAAP | 0.686 ± 0.017
62 | PRRPPPLPPASF | 0.713 ± 0.047
63 | PRRSNPQPTHIR | 0.708 ± 0.038
64 | PRSLPLDHPAPC | 0.709 ± 0.085
65 | PRSPLRYPPHCP | 0.691 ± 0.035
66 | PRSPPPSSSTPD | 0.688 ± 0.036
67 | PRSPPRSLFFPC | 0.648 ± 0.047
68 | PRSRSGVAQGPE | 0.6607 ± 0.0039
69 | PRSSVLPPCPSL | 0.707 ± 0.025
70 | PRSTFLRRHLRV | 0.6184 ± 0.0037
71 | PRTGPLPPLTPL | 0.679 ± 0.016
72 | PRTSSPPRPFRF | 0.624 ± 0.022
73 | PRVLVVSAVNTV | 0.695 ± 0.02
74 | PRYAEFVGRFEV | 0.6508 ± 0.0064
75 | PSAFSPPARISL | 0.761 ± 0.066
76 | PSAGSPAPLLHP | 0.705 ± 0.064
77 | PSALLGTCRCVQ | 0.706 ± 0.028
78 | PSAPPPSPLGRT | 0.738 ± 0.059

Row | Sequence | protein stability index
79 | PSAQPPPRPTRP | 0.6878 ± 0.0036
80 | PSCLPPPAHLEL | 0.705 ± 0.043
81 | PSFLPPAPLGIS | 0.741 ± 0.038
82 | PSFLSPCPPFLS | 0.747 ± 0.039
83 | PSFRTGLPPSDP | 0.681 ± 0.038
84 | PSGLVSPSCLGC | 0.68 ± 0.022
85 | PSGRRRWACARG | 0.694 ± 0.0097
86 | PSHLHERIRPAR | 0.726 ± 0.16
87 | PSHLNAPTTAPP | 0.701 ± 0.038
88 | PSHVFSDCIAPP | 0.696 ± 0.011
89 | PSILRGVLSAPK | 0.695 ± 0.04
90 | PSKRKRATPSKR | 0.647 ± 0.021
91 | PSLCFLPPPPSP | 0.686 ± 0.0076
92 | PSLFHHWSVLSP | 0.785 ± 0.1
93 | PSLHPLSPSPPA | 0.686 ± 0.041
94 | PSLHPNHLAPPP | 0.622 ± 0.046
95 | PSLLLPPYSSAP | 0.743 ± 0.021
96 | PSLPDSALRHSL | 0.70673 ± 9.8e-05
97 | PSLPPPFPPLRP | 0.7044 ± 0.0013
98 | PSLPPPSPSPPP | 0.666 ± 0.05
99 | PSLSPVEVPLSR | 0.759 ± 0.046
100 | PSLVGRVWLEFV | 0.691 ± 0.061
101 | PSPALGPFLAYR | 0.695 ± 0.0077
